Source: paper PMC8881100, “Biochemical and Molecular Dynamics Study of a Novel GH 43 α-L-Arabinofuranosidase/β-Xylosidase From Caldicellulosiruptor saccharolyticus DSM8903” (Frontiers in Bioengineering and Biotechnology, 2022)

Substrate: O=[N+]([O-])c1ccc(O[C@@H]2O[C@@H](CO)[C@H](O)[C@H]2O)cc1
Assay: purified protein
Assay type: biochemical, Caldicellulosiruptor saccharolyticus
Conditions: citric acid phosphate buffer pH 6, 70°C, 0.5 to 3.5 mM substrate

B1: CAX43 (GH43 α-L-arabinofuranosidase/β-xylosidase) (Caldicellulosiruptor saccharolyticus DSM 8903) (protein)
chain: MIPTLWDPNVDEERYKNPIIHADYSDPDVIRVGSDYFLVASSFNCVPGLPILHSRDLINWKIVNYAVERLPSPEYDTPQIGKGIWAPAIRYHEEKFYIYFSMPDDGIYVCYTDDPFGKWSDIHLVKAAKGWIDPCPFWDEDGNAYLVNAFAKSRIGFNSKLCVSRLSADGLRVLDEGKIVFDGAKTQPTIEGPKLYKRNGYYYIFAPAGGVKFGWQTVLRSKDIYGPYEEKIVLHQGKTKINGPHQGAWVETEKGEHWFVHFQDRGPYGRVVHLQPMRWEDNWPVIGVDIDGDGIGEPVEEYRKPNTNYKNEYDFYLECSDHFDKPQISLQWQWHANPQDNWYSLEKRKSYLRLYAVGNLTNNNKVKSIFFMPNLLLQKIPAPEFIAIVKLEVNFNKEGSYAGIIMSGSRYSSIGIKRGQKKLSLVQVLGDVKEDVIENTVAKMPIETSQVFLKISVKEGAVCKFSFSFDGKKFTDFGTEFIPQEAIWVGSKIGLFCINTSGKNGVIQSDYADFDYFKIENFRKEDEC
notes: C-terminal His6 tag; pEASY blunt E2, E. coli BL21 (C43); Ni-NTA purified
Question: Which results are given for B1?
Answer: Km: 1071 µM; kcat: 234.674 s⁻¹
